Reference: patent US6191256A, “Recombinant factor VIII binding peptides” (Bayer Corporation, priority 1998, dated 2001)
One block for each substance: values may come before it.

Key:
[1] = target: T1, rFVIII (Homo sapiens, UniProt P00451); experiment: column format binding assay, rFVIII mass per fraction by sandwich capture ELISA for the light chain; conditions: for Flow through ng: 10,000 ng rFVIII in 1:10 PPF injected, 5° C.; for ELISA results % total: Table 9, 0.5M CaCl2 fraction
Method: (§1) Immunoassay on rFVIII using a sandwich capture ELISA for the light chain and activity assay using a chromogenic substrate (COATEST Factor VIII kit from diaPharma, Franklin, Ohio) were performed on a BIOMEK® automated liquid handling system from Beckman Instruments (Brea, Calif.). The monoclonal antibody for rFVIII light chain (known as C7F7), the ELISA assay standard (lot A70K019), and the control for the activity assay (lot A70A001 @ 140 IU/mL) were from the Bayer Corporation (Berkeley, Calif.). The standard for the activity assay was at 11.2 IU/mL (Bayer, Clayton, N.C.), calibrated against the MEGA 1 standard, which is a working standard used by American manufacturers for measuring factor VIII activity (21).
(§2) Additional confirmatory binding assay and performance of the discovered binding peptides in terms of total rFVIII and activity recovery was performed in a column chromatographic format on a microbore HPLC. The resins were packed into 0.4×5 cm columns (Thomson, Springfield, Va.) and tested on the MICHROM HPLC system (Michrom BioResources, Auburn, Calif.). The elution program for the trials utilized the following method. The column was pre-equilibrated with equilibration buffer (as above). A 1 mL aliquot of 1:10 PPF followed by 1 mL of rFVIII (10,000 ng) in 1:10 PPF were injected and allowed sufficient time to flow through the column using equilibration buffer. The column was then washed with step elutions of 0.5 M and 1.0 M CaCl2 in equilibration buffer. The column was exposed to equilibration buffer. Remaining protein was eluted with 2% by volume glacial acetic acid in water. Columns were kept at 5° C. during the chromatographic runs. For each 1 mL injection (equilibration buffer, 1:10 PPF and 10,000 ng rFVIII in 1:10 PPF), the chromatographic cycle was run for 45 minutes (injection, flow through, 0.5 M CaCl2, 1.0 M CaCl2, equilibration buffer, 2% acetic acid, equilibration buffer).
(§3) A Gilson FC204 fraction collector at the HPLC outlet collected individual eluates for further analysis. Each collection tube had 100 μL hSA added to it to stabilize the rFVIII. Fractions collected from the 2% acetic acid eluates were neutralized with 2 M Tris, pH 10.5 to bring the pH to neutrality. The fractions were analyzed for total protein by the integration of the absorbance at 280 nm, for rFVIII by immunoassay (sandwich capture ELISA), and for rFVIII activity by a chromogenic substrate assay.
Tables 5 and 6 present the results from the additional confirmatory binding assays using the column format. The chromatography method was run by injecting the samples at a flow rate of 865 μL/min (413 cm/hr). In order to provide a 10 minute residence time of sample in the column the flow was decreased to 17 μL/min (10 cm/hr) upon injection.
Following the incubation, the flow was set at 865 μL/min (413 cm/hr) for the step clutions of 0.5 M CaCl2, 1.0 M CaCl2, and 2% acetic acid. Results are expressed in terms of the total mass of rFVIII in each fraction, as determined by the sandwich capture ELISA assay for the rFVIII light chain. […] A control using a non-binding peptide sequence (IGF) is also shown for comparison--in this case, 95% of the rFVIII loaded to the column was collected in the flow through fraction. Additional controls with no

[2] = target: T1, rFVIII; experiment: confirmatory binding assay in filtration plate format using 14C-rFVIII; conditions: for 0.5M CaCl2 % total / 2% acetic acid % total / 2% acetic acid dpm / 0.5M CaCl2 dpm: 5 mg beads; for 0.5M CaCl2 dpm: 5° C.; for beads % total / beads dpm: remaining on beads after washes
Method: Confirmatory binding assays were performed in a filtration plate format using individual peptide sequences synthesized directly onto the TOYOPEARL AF amino 650 M resin, at a final substitution density of 0.1 mmole/g resin. A slurry of each individual peptide sequence was prepared using deionized water. A 100 μL volume of beads (corresponding to 5 mg) was loaded into each well of the filtration plate (MULTISCREEN Assay System, Millipore, Bedford, Mass.), in triplicate for each peptide sequence. Beads were washed with 20% ethanol and incubated overnight with equilibration buffer (20 mM imidazole, 10 mM
CaCl2, 0.105 M NaCl, pH 6.9). A 100 μL aliquot of ^14 C-rFVIII diluted in neat PPF to a final concentration of 20-30 nM was loaded into each well and incubated for 1 hour at 5° C. Filtrate (unbound ^14 C-rFVIII) was collected into a microtiter plate and transferred to liquid scintillation vials for dpm counting. Beads were washed sequentially with: 100 μL of equilibration buffer for 15 minutes, 200 μL of 0.5 M CaCl2 (in equilibration buffer), 200 μL of 1.0 M CaCl2 (in equilibration buffer), and 200 uL of 2% by volume glacial acetic acid in water, for 1 hour each at 5° C. Scintillation counting on the unbound ^14 C-rFVIII (plus equilibration buffer wash), salt and acid washes, as well as on the beads was then performed and the overall mass balance calculated.
Beads presenting the appropriate peptide sequence on the surface were placed in the filtration plate wells and incubated sequentially with equilibration buffer, ^14 C-rFVIII in PPF, equilibration buffer, 0.5 M CaCl2 wash, 1.0 M CaCl2 wash and 2% acetic acid wash. After each incubation, filtrate was collected in microtiter plates, and dpm counted on each
In Table 3, the ^14 C-rFVIII was loaded at 20 nM (in PPF) and the radiolabeling yield was at 3.0×10^15 dpm/mole. In Table 4, the ^14 C-rFVIII was loaded at 30 nM (in PPF) and the radiolabeling yield was at 5.0×10^15 dpm/mole.

[3] = target: T1, rFVIII; experiment: rFVIII activity recovery from peptide columns by chromogenic substrate assay (COATEST); format: biochemical; conditions: for 0.5M CaCl2 % total: activity recovery; for Flow through IU: rFVIII activity in fraction; for Activity results % total: Table 9, 0.5M CaCl2 fraction
Method: as §1, §2, §3
Tables 7 and 8 list the sequences for which activity recovery was determined by a chromogenic substrate assay (COASTEST kit, diaPharma, Franklin, Ohio). Chromatographc conditions are the same as described above for the results from Tables 5 and 6. It can be

[4] = Table 3, 14C-rFVIII 20 nM in PPF
[5] = Table 3, 14C-rFVIII 20 nM in PPF, 3.0 × 10^15 DPM/mole
[6] = Table 4, 14C-rFVIII 30 nM in PPF
[7] = Table 4, 14C-rFVIII 30 nM in PPF, 5.0 × 10^15 dpm/mole

T1 sequence (P00451 20-2351): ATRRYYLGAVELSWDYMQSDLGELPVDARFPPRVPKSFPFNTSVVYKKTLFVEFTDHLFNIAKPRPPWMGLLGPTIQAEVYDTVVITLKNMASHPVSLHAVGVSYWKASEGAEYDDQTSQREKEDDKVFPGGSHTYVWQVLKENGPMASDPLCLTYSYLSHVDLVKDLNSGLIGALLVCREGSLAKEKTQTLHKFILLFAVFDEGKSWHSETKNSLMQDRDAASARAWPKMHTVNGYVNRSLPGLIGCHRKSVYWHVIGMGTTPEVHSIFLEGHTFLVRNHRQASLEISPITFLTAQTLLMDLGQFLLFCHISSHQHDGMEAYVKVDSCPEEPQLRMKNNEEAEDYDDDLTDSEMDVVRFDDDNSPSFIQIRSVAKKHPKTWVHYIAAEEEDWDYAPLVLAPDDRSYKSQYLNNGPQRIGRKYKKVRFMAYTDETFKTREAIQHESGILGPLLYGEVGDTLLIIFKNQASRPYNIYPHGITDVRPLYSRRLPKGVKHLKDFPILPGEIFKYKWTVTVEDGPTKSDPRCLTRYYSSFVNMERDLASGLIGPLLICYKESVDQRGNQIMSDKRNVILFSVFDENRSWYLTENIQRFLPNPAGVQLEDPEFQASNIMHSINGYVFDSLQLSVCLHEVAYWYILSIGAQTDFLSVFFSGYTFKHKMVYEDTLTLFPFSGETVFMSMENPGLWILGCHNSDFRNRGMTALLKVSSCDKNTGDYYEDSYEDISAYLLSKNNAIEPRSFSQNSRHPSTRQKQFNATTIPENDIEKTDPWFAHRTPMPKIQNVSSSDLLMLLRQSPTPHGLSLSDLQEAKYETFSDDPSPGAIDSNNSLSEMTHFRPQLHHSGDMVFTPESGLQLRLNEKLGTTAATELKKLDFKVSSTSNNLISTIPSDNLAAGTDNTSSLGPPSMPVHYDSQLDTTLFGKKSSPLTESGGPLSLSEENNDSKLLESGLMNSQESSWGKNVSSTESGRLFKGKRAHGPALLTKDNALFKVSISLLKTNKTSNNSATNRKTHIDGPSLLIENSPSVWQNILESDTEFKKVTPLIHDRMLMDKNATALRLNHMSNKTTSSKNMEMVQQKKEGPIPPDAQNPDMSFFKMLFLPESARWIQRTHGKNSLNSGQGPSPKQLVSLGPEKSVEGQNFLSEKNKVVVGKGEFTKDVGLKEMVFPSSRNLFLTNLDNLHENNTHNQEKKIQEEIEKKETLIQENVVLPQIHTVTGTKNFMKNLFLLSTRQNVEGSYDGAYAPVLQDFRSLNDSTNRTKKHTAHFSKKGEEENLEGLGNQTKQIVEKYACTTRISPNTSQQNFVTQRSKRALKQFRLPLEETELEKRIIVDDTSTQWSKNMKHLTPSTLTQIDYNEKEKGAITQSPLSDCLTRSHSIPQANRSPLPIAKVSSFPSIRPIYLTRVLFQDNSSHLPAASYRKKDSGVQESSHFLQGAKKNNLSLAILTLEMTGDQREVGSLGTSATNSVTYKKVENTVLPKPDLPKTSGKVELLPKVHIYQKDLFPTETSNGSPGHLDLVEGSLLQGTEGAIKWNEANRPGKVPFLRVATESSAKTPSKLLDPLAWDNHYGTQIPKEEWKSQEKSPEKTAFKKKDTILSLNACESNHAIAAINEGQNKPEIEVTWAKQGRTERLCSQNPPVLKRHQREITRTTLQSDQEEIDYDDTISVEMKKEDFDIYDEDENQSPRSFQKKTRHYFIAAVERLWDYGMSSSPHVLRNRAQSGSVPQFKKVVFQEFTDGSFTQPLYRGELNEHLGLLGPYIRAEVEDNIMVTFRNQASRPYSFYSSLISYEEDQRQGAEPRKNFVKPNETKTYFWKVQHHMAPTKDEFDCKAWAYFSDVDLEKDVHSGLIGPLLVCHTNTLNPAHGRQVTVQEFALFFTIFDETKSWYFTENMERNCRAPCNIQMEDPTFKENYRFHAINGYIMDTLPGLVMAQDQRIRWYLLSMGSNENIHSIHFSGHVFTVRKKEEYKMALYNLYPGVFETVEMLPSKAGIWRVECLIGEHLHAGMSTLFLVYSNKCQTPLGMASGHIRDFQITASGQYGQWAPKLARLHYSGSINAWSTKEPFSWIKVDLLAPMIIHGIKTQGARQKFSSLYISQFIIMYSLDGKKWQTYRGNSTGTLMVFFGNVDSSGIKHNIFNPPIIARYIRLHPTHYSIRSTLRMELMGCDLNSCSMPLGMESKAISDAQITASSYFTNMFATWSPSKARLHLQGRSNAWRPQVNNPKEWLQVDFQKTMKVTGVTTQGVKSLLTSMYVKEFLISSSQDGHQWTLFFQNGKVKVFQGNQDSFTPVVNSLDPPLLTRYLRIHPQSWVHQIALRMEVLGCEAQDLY
T1 sequence (P00451 1668-2351 limits assumed): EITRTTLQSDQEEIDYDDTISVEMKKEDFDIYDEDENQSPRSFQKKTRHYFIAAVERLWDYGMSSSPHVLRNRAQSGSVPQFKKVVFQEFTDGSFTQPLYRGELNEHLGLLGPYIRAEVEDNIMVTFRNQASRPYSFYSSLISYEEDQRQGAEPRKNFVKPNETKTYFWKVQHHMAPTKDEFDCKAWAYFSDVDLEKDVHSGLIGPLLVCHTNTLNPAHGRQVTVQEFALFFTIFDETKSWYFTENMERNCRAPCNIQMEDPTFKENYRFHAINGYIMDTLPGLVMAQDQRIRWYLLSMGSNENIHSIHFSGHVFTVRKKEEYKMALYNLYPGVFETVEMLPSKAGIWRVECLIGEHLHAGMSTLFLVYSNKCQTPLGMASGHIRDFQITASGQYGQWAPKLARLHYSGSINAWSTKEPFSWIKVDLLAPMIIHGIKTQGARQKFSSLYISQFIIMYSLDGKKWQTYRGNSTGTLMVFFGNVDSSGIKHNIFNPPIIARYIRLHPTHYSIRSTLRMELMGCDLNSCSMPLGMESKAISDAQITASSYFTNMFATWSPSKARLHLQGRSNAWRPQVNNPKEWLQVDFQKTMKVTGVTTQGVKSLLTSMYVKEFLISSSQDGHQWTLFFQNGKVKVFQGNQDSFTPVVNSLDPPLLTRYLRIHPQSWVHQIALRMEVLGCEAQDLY

0.5M CaCl2 ng ([1]; Table 5): 5745 ng
0.5M CaCl2 % total ([1]; Table 5): 92%
2% acetic acid % total ([1]; Table 5): 0%
2% acetic acid ng ([1]; Table 5): 31 ng
Flow through % total ([1]; Table 5): 7%
Total ng ([1]; Table 5): 6245 ng
Flow through ng ([1]; Table 5): 447 ng
ELISA results % total [1]: 92%
Total dpm ([2]; Table 3, 14C-rFVIII 20 nM): 2767 dpm
0.5M CaCl2 % total [2, 4]: 86%
2% acetic acid % total [2, 4]: 12%
2% acetic acid dpm [2, 4]: 322 dpm
0.5M CaCl2 dpm [2, 5]: 2366 dpm
beads % total ([2]; Table 3, 14C-rFVIII 20 nM): 3%
beads dpm ([2]; Table 3, 14C-rFVIII 20 nM): 79 dpm
0.5M CaCl2 IU ([3]; Table 7): 51.6 IU
2% acetic acid % total ([3]; Table 7): 1%
2% acetic acid IU ([3]; Table 7): 0.5 IU
Flow through % total ([3]; Table 7): 1%
Total IU ([3]; Table 7): 54.3 IU
0.5M CaCl2 % total ([3]; Table 7): 95%
Flow through IU ([3]; Table 7): 0.4 IU
Activity results % total [3]: 95%
Substance: 2 (RNPPNN) [compound 2]

0.5M CaCl2 ng ([1]; Table 6): 2850 ng
0.5M CaCl2 % total ([1]; Table 6): 32%
2% acetic acid % total ([1]; Table 6): 1%
2% acetic acid ng ([1]; Table 6): 75 ng
Flow through % total ([1]; Table 6): 66%
Total ng ([1]; Table 6): 8851 ng
Flow through ng ([1]; Table 6): 5828 ng
ELISA results % total [1]: 32%
Total dpm ([2]; Table 4, 14C-rFVIII 30 nM): 2184 dpm
0.5M CaCl2 % total [2, 6]: 91%
2% acetic acid % total [2, 6]: 6%
2% acetic acid dpm [2, 6]: 130 dpm
0.5M CaCl2 dpm [2, 7]: 1994 dpm
beads % total ([2]; Table 4, 14C-rFVIII 30 nM): 3%
beads dpm ([2]; Table 4, 14C-rFVIII 30 nM): 60 dpm
0.5M CaCl2 IU ([3]; Table 8): 14.7 IU
2% acetic acid % total ([3]; Table 8): 0%
2% acetic acid IU ([3]; Table 8): 0.00 IU
Flow through % total ([3]; Table 8): 73%
Total IU ([3]; Table 8): 58.6 IU
0.5M CaCl2 % total ([3]; Table 8): 25%
Flow through IU ([3]; Table 8): 42.9 IU
Activity results % total [3]: 25%
Substance: 14 (EPRVIG) [compound 14]

0.5M CaCl2 ng ([1]; Table 6): 1075 ng
0.5M CaCl2 % total ([1]; Table 6): 25%
2% acetic acid % total ([1]; Table 6): 60%
2% acetic acid ng ([1]; Table 6): 2569 ng
Flow through % total ([1]; Table 6): 0%
Total ng ([1]; Table 6): 4283 ng
Flow through ng ([1]; Table 6): 0 ng
Total dpm ([2]; Table 4, 14C-rFVIII 30 nM): 2987 dpm
0.5M CaCl2 % total [2, 6]: 15%
2% acetic acid % total [2, 6]: 72%
2% acetic acid dpm [2, 6]: 2148 dpm
0.5M CaCl2 dpm [2, 7]: 457 dpm
beads % total ([2]; Table 4, 14C-rFVIII 30 nM): 13%
beads dpm ([2]; Table 4, 14C-rFVIII 30 nM): 382 dpm
0.5M CaCl2 IU ([3]; Table 8): 9.9 IU
2% acetic acid % total ([3]; Table 8): 7%
2% acetic acid IU ([3]; Table 8): 1.4 IU
Flow through % total ([3]; Table 8): 2%
Total IU ([3]; Table 8): 19.5 IU
0.5M CaCl2 % total ([3]; Table 8): 51%
Flow through IU ([3]; Table 8): 0.5 IU
Substance: 19 (FHFGLQ) [compound 19]

0.5M CaCl2 ng ([1]; Table 5): 4961 ng
0.5M CaCl2 % total ([1]; Table 5): 88%
2% acetic acid % total ([1]; Table 5): 1%
2% acetic acid ng ([1]; Table 5): 61 ng
Flow through % total ([1]; Table 5): 10%
Total ng ([1]; Table 5): 5651 ng
Flow through ng ([1]; Table 5): 583 ng
ELISA results % total [1]: 88%
Total dpm ([2]; Table 3, 14C-rFVIII 20 nM): 3162 dpm
0.5M CaCl2 % total [2, 4]: 85%
2% acetic acid % total [2, 4]: 12%
2% acetic acid dpm [2, 4]: 368 dpm
0.5M CaCl2 dpm [2, 5]: 2694 dpm
beads % total ([2]; Table 3, 14C-rFVIII 20 nM): 3%
beads dpm ([2]; Table 3, 14C-rFVIII 20 nM): 99 dpm
0.5M CaCl2 IU ([3]; Table 7): 32.8 IU
2% acetic acid % total ([3]; Table 7): 2%
2% acetic acid IU ([3]; Table 7): 0.58 IU
Flow through % total ([3]; Table 7): 0%
Total IU ([3]; Table 7): 36.5 IU
0.5M CaCl2 % total ([3]; Table 7): 90%
Flow through IU ([3]; Table 7): 0.03 IU
Activity results % total [3]: 90%
Substance: 1 (KPNPLA) [compound 1]
